B1: OTULIN C129A TQK100-102AAA (enzyme, human, UniProt Q96BN8 1-352, looked up)
chain: MSRGTMPQPEAWPGASCAETPAREAAATARDGGKAAASGQPRPEMQCPAEHEEDMYRAADEIEKEKELLIHERGASEPRLSVAPEMDIMDYCKKEWRGNAAAATCMKMGYEEVSQKFTSIRRVRGDNYAALRATLFQAMSQAVGLPPWLQDPELMLLPEKLISKYNWIKQWKLGLKFDGKNEDLVDKIKESLTLLRKKWAGLAEMRTAEARQIACDELFTNEAEEYSLYEAVKFLMLNRAIELYNDKEKGKEVPFFSVLLFARDTSNDPGQLLRNHLNQVGHTGGLEQVEMFLLAYAVRHTIQVYRLSKYNTEEFITVYPTDPPKDWPVVTLIAEDDRHYNIPVRVCEETSL
notes: also called triple mutant TQK100-102 to AAA; source: E. coli Rosetta2 (DE3) pLacI, purified (Ni2+ resin, 3C protease, SEC)
B2: OTULINcat C129A (aa 80–352) (domain or fragment, human, UniProt Q96BN8 80-352, looked up)
chain: LSVAPEMDIMDYCKKEWRGNTQKATCMKMGYEEVSQKFTSIRRVRGDNYAALRATLFQAMSQAVGLPPWLQDPELMLLPEKLISKYNWIKQWKLGLKFDGKNEDLVDKIKESLTLLRKKWAGLAEMRTAEARQIACDELFTNEAEEYSLYEAVKFLMLNRAIELYNDKEKGKEVPFFSVLLFARDTSNDPGQLLRNHLNQVGHTGGLEQVEMFLLAYAVRHTIQVYRLSKYNTEEFITVYPTDPPKDWPVVTLIAEDDRHYNIPVRVCEETSL
notes: FAM105B/OTULIN, human, catalytic OTU domain aa 80-352, catalytic Cys129 changed to Ala; Expressed from pOPIN-F. PDB 3ZNV is the wild-type parent of the same limits; also called OTULIN (80–352) C129A; OTULIN 80-352 C129A; source: E. coli Rosetta2 (DE3) pLacI, purified (Ni2+ resin, 3C protease, anion exchange, SEC)

Molecular target: T1, FlAsH-tagged Met1-diUb (UniProt P0CG48 1-76; P0CG48 1-71, Lumio Green (FlAsH) on the C-terminal WCCPGCC motif)
T1 construct: ubiquitin, distal moiety, residues 1-76, joined by Gly76 in a peptide bond to Met1 of the proximal moiety; ubiquitin, proximal moiety; a C-terminal WCCPGCC motif replaces aa 72-76, so that residues 1-71 are left; Construct described in Ye et al., 2011; Chain: Ub(1-76)-Ub(1-71)-WCCPGCC; also called FlAsH-tagged Met1-diUb WT; Met1-linked diUb; source: expressed from pET17 plasmid, purified as …
Assay: fluorescence polarisation; FlAsH-tagged diUb fixed (10 μl of 100 nM plus 10 μl protein), OTULIN C129A variants serially diluted; 20 mM Tris pH 7.4, 100 mM NaCl, 5 mM β-mercaptoethanol, 0.1 mg/ml BSA; one-site binding model; triplicate
Conditions: both partners purified

| Binder | binding result | Kd [nM] |
| --- | --- | --- |
| B1 | binds | – |
| B2 | – | 196 |

From PMC3690481, “OTULIN Antagonizes LUBAC Signaling by Specifically Hydrolyzing Met1-Linked Polyubiquitin” (Cell, 2013)
